# Assay results reported in paper PMC9205463.
# Substrate: Nc1ncnc2c1ncn2[C@@H]1O[C@H](COP(=O)(O)OP(=O)(O)OP(=O)(O)O)[C@@H](O)[C@H]1O
# Experiment: purified protein
# Conditions: M13 ssDNA effector; ATP 0-4 mM
protein,measurement,value
DDX41 (Homo sapiens) (protein) MEESEPERKRARTDEVPAGGSRSEAEDEDDEDYVPYVPLRQRRQLLLQKLLQRRRKGAAEEEQQDSGSEPRGDEDDIPLGPQSNVSLLDQHQHLKEKAEARKESAKEKQLKEEEKILESVAEGRALMSVKEMAKGITYDDPIKTSWTPPRYVLSMSEERHERVRKKYHILVEGDGIPPPIKSFKEMKFPAAILRGLKKKGIHHPTPIQIQGIPTILSGRDMIGIAFTGSGKTLVFTLPVIMFCLEQEKRLPFSKREGPYGLIICPSRELARQTHGILEYYCRLLQEDSSPLLRCALCIGGMSVKEQMETIRHGVHMMVATPGRLMDLLQKKMVSLDICRYLALDEADRMIDMGFEGDIRTIFSYFKGQRQTLLFSATMPKKIQNFAKSALVKPVTINVGRAGAASLDVIQEVEYVKEEAKMVYLLECLQKTPPPVLIFAEKKADVDAIHEYLLLKGVEAVAIHGGKDQEERTKAIEAFREGKKDVLVATDVASKGLDFPAIQHVINYDMPEEIENYVHRIGRTGRSGNTGIATTFINKACDESVLMDLKALLLEAKQKVPPVLQVLHCGDESMLDIGGERGCAFCGGLGHRITDCPKLEAMQTKQVSNIGRKDYLAHSSMDF,Km,200 µM
same,kcat,953.6 ± 45.5 s⁻¹
